Data reported in patent US20240199761A1 (AstraZeneca / MedImmune, published 2024).
Where two headings read alike, the source gives them in different places.

Legend:
[1] = target: T1, PAD2 (species not stated) (Homo sapiens (Human), UniProt Q9Y2J8 1-665, Biotinylated in the specificity ELISA. The SPR material was enzymatically biotinylated on an Avi-tag.); assay: specificity ELISA: biotinylated PAD on a streptavidin plate, detection with anti-human IgG Fc HRP, fluorescence (RFU); antibody concentration not given
T1 construct: Biotinylated in the specificity ELISA; also called biotinylated PAD2; not shown: Avi-tag and any purification tag on the recombinant PAD2

[2] = target: T2, PAD4 (species not stated) (Homo sapiens (Human), UniProt Q9UM07 1-663, Biotinylated in the specificity ELISA. The SPR material was enzymatically biotinylated on an Avi-tag.); assay: as above
T2 construct: Biotinylated in the specificity ELISA; monomer and dimer forms seen in iSCAT; also called biotinylated PAD4; not shown: Avi-tag and any purification tag on the recombinant PAD4

recombinant human PAD4 = target: T3, recombinant human PAD4 (human, UniProt Q9UM07 1-663, enzymatically biotinylated on an Avi-tag (when captured on the SPR chip)); assay: specificity ELISA: biotinylated PAD on a streptavidin plate, detection with anti-human IgG Fc HRP, Binding (RFU); antibody concentration not given
T3 construct: also called hPAD4; Human PAD4 (RD223)

recombinant human PAD2 [3] = target: T4, recombinant human PAD2 (human, UniProt Q9Y2J8 1-665, enzymatically biotinylated on an Avi-tag (when captured on the SPR chip)); assay: as above
T4 construct: also called hPAD2; Human PAD2 (RD220)

recombinant human PAD2 [4] = target: T4, recombinant human PAD2; assay: SPR (Biacore 8K), N-terminally tagged against C-terminally tagged recombinant PAD2
[5] = target: T5, human PAD2, recombinant, tags at the N-terminus (human, UniProt Q9Y2J8 1-665, enzymatically biotinylated on an Avi-tag where captured on streptavidin); assay: SPR; biotinylated PAD2 on C1-streptavidin, antibody flowed over
T5 construct: not shown: N-terminal tags incl; Avi-tag

[6] = target: T6, cynomolgus PAD2, recombinant, tags at the N-terminus (cynomolgus, UniProt G7NUR0 1-665, enzymatically biotinylated on an Avi-tag where captured on streptavidin); assay: as above
T6 construct: also called Cyno PAD2; not shown: N-terminal tags incl; Avi-tag

[7] = target: T7, mouse PAD2, recombinant, tags at the N-terminus (mouse, UniProt Q08642 1-673, enzymatically biotinylated on an Avi-tag where captured on streptavidin); assay: as above
T7 construct: not shown: N-terminal tags incl; Avi-tag

[8] = target: T5, human PAD2, recombinant, tags at the …; assay: as above; remark: listed apart in the source
[9] = target: T6, cynomolgus PAD2, recombinant, tags at …; assay: as above; remark: listed apart in the source
[10] = target: T7, mouse PAD2, recombinant, tags at the …; assay: as above; remark: listed apart in the source

T7 sequence (Q08642 whole entry): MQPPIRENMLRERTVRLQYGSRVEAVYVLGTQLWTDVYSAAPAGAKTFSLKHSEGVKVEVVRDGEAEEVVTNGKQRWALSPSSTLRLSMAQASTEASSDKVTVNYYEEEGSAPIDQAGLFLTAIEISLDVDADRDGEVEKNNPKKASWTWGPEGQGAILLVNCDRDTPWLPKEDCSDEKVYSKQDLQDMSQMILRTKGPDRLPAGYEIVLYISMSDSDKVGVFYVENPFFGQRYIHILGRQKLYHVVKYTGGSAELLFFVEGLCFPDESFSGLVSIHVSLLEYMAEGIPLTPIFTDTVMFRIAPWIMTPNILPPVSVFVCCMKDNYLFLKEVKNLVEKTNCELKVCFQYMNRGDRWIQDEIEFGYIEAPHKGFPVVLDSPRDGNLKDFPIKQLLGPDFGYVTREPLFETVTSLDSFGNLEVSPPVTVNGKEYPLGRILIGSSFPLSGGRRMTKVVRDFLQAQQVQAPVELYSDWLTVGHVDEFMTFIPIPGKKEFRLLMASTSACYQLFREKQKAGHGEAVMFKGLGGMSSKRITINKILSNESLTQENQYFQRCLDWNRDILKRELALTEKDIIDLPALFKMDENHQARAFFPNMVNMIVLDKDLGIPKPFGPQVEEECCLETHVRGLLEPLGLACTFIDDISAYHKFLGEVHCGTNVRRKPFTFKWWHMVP
T5 sequence (Q9Y2J8 whole entry): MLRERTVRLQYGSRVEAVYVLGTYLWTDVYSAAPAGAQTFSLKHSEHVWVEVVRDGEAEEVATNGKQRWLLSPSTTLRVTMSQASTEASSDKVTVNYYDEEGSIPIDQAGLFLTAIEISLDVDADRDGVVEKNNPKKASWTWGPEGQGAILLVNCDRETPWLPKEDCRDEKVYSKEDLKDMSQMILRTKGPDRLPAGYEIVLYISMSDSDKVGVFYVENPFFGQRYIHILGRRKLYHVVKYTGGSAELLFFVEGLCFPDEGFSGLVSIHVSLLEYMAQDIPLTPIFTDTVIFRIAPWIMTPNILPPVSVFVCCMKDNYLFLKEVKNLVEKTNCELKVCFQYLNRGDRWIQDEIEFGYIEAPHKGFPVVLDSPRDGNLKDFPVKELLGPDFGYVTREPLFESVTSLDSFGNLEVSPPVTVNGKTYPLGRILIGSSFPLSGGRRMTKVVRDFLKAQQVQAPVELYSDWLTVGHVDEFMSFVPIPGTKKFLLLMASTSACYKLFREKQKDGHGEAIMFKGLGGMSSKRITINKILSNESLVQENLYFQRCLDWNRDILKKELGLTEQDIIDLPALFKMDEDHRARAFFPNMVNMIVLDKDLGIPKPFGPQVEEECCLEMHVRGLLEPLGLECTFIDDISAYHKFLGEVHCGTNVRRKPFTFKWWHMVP
T6 sequence (G7NUR0 entry or part of it): as the sequence (Q9Y2J8 whole entry) above, with H47R, W49R, V53M, I200M, E334D, L342I, S401P, E577K counted along it
T4 sequence (Q9Y2J8 whole entry): as the sequence (Q9Y2J8 whole entry) above
T1 sequence (Q9Y2J8 whole entry): as above
T2 sequence (Q9UM07 whole entry): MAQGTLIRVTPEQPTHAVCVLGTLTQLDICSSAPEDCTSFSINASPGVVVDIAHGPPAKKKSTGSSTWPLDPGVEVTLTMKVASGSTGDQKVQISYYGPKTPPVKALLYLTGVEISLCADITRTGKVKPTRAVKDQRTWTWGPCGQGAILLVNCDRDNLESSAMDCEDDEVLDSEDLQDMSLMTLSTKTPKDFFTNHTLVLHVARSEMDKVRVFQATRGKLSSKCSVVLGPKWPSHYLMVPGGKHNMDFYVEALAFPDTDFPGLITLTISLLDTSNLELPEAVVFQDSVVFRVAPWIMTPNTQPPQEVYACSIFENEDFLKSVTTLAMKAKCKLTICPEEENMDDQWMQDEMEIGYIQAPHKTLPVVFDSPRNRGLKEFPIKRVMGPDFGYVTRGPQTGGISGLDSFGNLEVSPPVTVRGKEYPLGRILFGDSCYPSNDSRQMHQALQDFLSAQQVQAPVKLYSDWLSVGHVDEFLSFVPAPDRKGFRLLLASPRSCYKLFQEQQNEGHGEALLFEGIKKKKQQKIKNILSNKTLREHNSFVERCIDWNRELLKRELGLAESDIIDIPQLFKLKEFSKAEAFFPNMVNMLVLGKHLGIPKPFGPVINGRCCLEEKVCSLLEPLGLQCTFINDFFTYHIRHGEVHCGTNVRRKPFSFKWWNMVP
T3 sequence (Q9UM07 whole entry): as above

B1: R347 Bis3 FQQYTE (antibody, human IgG1, lambda)
light chain: ELVLTQPASVSGSPGQSITISCTGTSSDVGGYNYVSWYQQHPGKAPKLMIYDVSKRPSGVSNRFSGSKSGNTASLTISGLQAEDEADYYCSSYTSSSTLVFGGGTKLTVLGQPKAAPSVTLFPPSSEELQANKATLVCLISDFYPGAVTVAWKADSSPVKAGVETTTPSKQSNNKYAASSYLSLTPEQWKSHRSYSCQVTHEGSTVEKTVAPTECS
heavy chain with C-terminal scFv: EVQLLESGGGLVQPGGSLRLSCTTSGFTFNTYAMSWVRQAPGKGLEWLSGINNNGRTAFYADSVKGRFTISRDNSKNTLYLQINSLRADDTAVYFCAKDVRFIAVPGDSWGQGTLVTVSSASTKGPSVFPLAPSSKSTSGGTAALGCLVKDYFPEPVTVSWNSGALTSGVHTFPAVLQSSGLYSLSSVVTVPSSSLGTQTYICNVNHKPSNTKVDKRVEPKSCDKTHTCPPCPAPEFQGGPSVFLFPPKPKDTLYITREPEVTCVVVDVSHEDPEVKFNWYVDGVEVHNAKTKPREEQYNSTYRVVSVLTVLHQDWLNGKEYKCQVSNKALPAPIEKTISKAKGQPREPQVYTLPPSREEMTKNQVSLTCLVKGFYPSDIAVEWESNGQPENNYKTTPPVLDSDGSFFLYSKLTVDKSRWQQGNVFSCSVMHEALHNHYTQKSLSLSPGKGGGGSGGGGSEVQLLESGGGLVQPGGSLRLSCTTSGFTFNTYAMSWVRQAPGKGLEWLSGINNNGRTAFYADSVKGRFTISRDNSKNTLYLQINSLRADDTAVYFCAKDVRFIAVPGDSWGQGTLVTVSSGGGGSGGGGSGGGGSGGGGSELVLTQPASVSGSPGQSITISCTGTSSDVGGYNYVSWYQQHPGKAPKLMIYDVSKRPSGVSNRFSGSKSGNTASLTISGLQAEDEADYYCSSYTSSSTLVFGGGTKLTVL
notes: also called Bis3 control (R347)
[1]
  binding result: no binding
[2]
  binding result: no binding
Recombinant human PAD4
  binding result: no binding
Recombinant human PAD2 [3]
  binding result: no binding

B2: Clone 22 (141LO0035 hIgG1 pgl-4), anti-PAD2, as Fab (Fab, V domains shown)
VH: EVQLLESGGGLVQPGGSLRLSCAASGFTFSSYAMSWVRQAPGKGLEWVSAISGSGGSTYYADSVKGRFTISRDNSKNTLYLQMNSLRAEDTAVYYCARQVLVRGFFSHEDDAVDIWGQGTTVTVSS
VL: SYVLTQPPSVSVSPGQTASITCSGDKVGDKYVSWYQQKPGQSPVLVIYQDSQRPSGIPERFSGSNSGNTATLTISGTQAMDEADYYCQTWAPDVLLFGSGTKVTVL
notes: also called Clone 22 (Fab); anti-PAD2 Fab
Recombinant human PAD2 [4]
  fold higher affinity than in the previous assay (Table 69): 10 fold

B3: anti-PAD2 Clone 22 (141LO0035 hIgG1 pgl-4), Fab (Fab, V domains shown)
VH: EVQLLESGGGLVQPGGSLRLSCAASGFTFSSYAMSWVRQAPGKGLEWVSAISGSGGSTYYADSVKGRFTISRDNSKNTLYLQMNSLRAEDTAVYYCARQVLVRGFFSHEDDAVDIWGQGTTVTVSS
VL: B2 VL
notes: Tested as Fab; also called Clone 22 (Fab)
[5]
  Kd: 0.0131 nM
  koff: 4.77e-05 s⁻¹
  kon: 3.67e+06 M⁻¹ s⁻¹
[6]
  Kd: 0.0292 nM
  koff: 7.03e-05 s⁻¹
  kon: 2.39e+06 M⁻¹ s⁻¹
[7]
  Kd: 0.131 nM
  koff: 0.000462 s⁻¹
  kon: 3.59e+06 M⁻¹ s⁻¹
[8]
  Kd: 0.0131 nM
[9]
  Kd: 0.0292 nM
[10]
  Kd: 0.131 nM
